These results are taken from patent publication US20200325239A1, “Modulation of Aminopeptidase N/CD13 and Rheumatoid Arthritis” (THE REGENTS OF THE UNIVERSITY OF MICHIGAN, priority 2016, published 2020).

One experiment deals with RA FLS. Description: FLS growth assay (Essen IncuCyte, percent confluence). The settings on record: proliferation and migration. It is filed as cell-based, human. The method, then: FIG. 5. […] FLS were seeded on 96-well plates overnight. An Essen Incucyte system was used for both growth (A) and migration (B) assays. Growth was calculated as the difference in percent confluence from time 0. Migration was measured in a scratch-wound assay using relative wound density. All data are expressed as a ratio to untreated FLS of the same cell line. mean±SEM n≥4 (*p≤0.05).
RA FLS were seeded on Essen Image Lock 96-well plates (Essen Bioscience, Ann Arbor, Mich.) overnight at either 3,000 cells/well for growth or 30,000 cells/well for migration. For growth, the 20% FBS CMRL media was removed and cells were washed 1× with PBS. 100 μl of medium alone (control) or medium containing anti-CD3 (25 or 50 ng/ml, OKT3, used as a non-reactive isotype control antibody in this experiment), anti-CD13 1D7 or WM15 (Biolegend, San Diego, Calif.) (25 or 50 ng/ml), or CD13 chemical inhibitors actinonin (Sigma-Aldrich, St. Louis, Mo.) or bestatin (Sigma-Aldrich, St. Louis, Mo.) (10 μM and 50 μM, respectively) was added to the wells. Images and confluence data were collected using an Essen IncuCyte (Essen Bioscience, Ann Arbor, Mich.). For the scratch-wound migration assay, wounds were made via the Essen scratch-wound tool in the seeded 96-well plate. Plates were then washed 2× with PBS and medium was added similar to the growth plates. Data were collected and the confluence or relative wound density calculated by the Essen IncuCyte.

Experiment [1] has as its system Human dermal microvascular endothelial cell (HMVEC). In words: HMVEC chemotaxis in modified Boyden chamber. It is filed as cell-based. The settings on record: p<0.05 vs PBS; dose-dependent. The method, then:
FIG. 10. Human dermal microvascular endothelial cell (HMVEC) chemotaxis was performed in a modified Boyden chamber using CD13 at various concentrations. […] CD13 induced HMVEC migration from 500-2000 ng/ml (p<0.05). Data represent the mean of 3 individual experiments±SEM. Three high-power fields (hpf) (×400) were counted in each replicate well and results were expressed as cells per hpf. PBS served as negative control.

Experiment [2] shares this test system. In words: HMVEC tube formation on growth factor-reduced Matrigel. It is filed as cell-based. The settings on record: GFR Matrigel. The method, then: FIG. 11. Human dermal microvascular endothelial cell (HMVEC) tube formation was assessed on growth factor-reduced Matrigel (GFR, BD Biosciences) with CD13. […] Arrows indicate the number of tubes formed in each group. n=number of replicates in each group. The number of tubes formed was quantitated by an observer blinded to the experimental groups.
HMVEC Matrigel tube formation assay. After finding that CD13 is chemotactic for HMVECs, the role of CD13 in RA is examined by performing HMVEC capillary morphogenesis assay on Matrigel tube with sham- or CD13-depleted RA SFs. Growth factor-reduced Matrigel (GFR, BD Biosciences) is used to perform this assay (56-58). CD13- or sham-depleted RA SFs are used as test groups (58). The chambers are incubated for 16 to 18 hours at 37° C. in a 5% CO2 humidified atmosphere. Cells are fixed and stained with Diff-Quik. The number of tubes formed is quantitated by an observer blinded to the experimental groups. bFGF (30 nM) and phosphate buffered saline (PBS) serve as positive and negative controls, respectively.

Experiment [3] concerns C57Bl/6 mice. In words: Matrigel plug angiogenesis assay in vivo (hemoglobin). On the set-up: species or system mouse. The settings on record: subcutaneous Matrigel 500 μl, plugs harvested after 7 days. The procedure: FIG. 13. To test the effect of CD13 in angiogenesis in vivo, Matrigel plug assays were performed using C57Bl/6 mice. Each mouse was given a subcutaneous injection of sterile GFR Matrigel (500 μl/injection) containing either CD13 or PBS, a negative control. Matrigel plugs were harvested after 7 days. Hemoglobin (Hb) was determined. […] Results are represented as the mean+SEM and *p<0.05 was considered significant. n=number of mice per group.
This assay is performed as described previously (56-58). RA SFs sham- or CD13-depleted (50 μl in 500 μl of Matrigel) are injected subcutaneously in C57Bl/6 mice. After 7 days, the mice are euthanized and the Matrigel plugs are removed, weighed, and processed for hemoglobin (Hb) measurement or immunofluorescence. Hemoglobin (Hb) concentration is determined either by the Drabkin method using a Drabkin's reagent kit (Sigma) or with the 3,3,5,5-tetramethylbenzidine substrate system (Sigma) (56, 61, 62). Hb values are normalized to plug weight.

The subject of the next experiment is normal human MN. In words: Normal human MN chemotaxis in modified Boyden chambers. It is filed as cell-based. The settings on record: PBS negative control. The procedure:
FIG. 14. To evaluate the contribution of CD13 to RA inflammation by recruiting MNs, normal human MN chemotaxis assays were performed in modified Boyden chambers. […] PBS served as negative control. n=number of experiments. The results are expressed as mean+SEM and *p<0.05 was considered significant. n=number of replicates.

In experiment [4] the test system is C57Bl/6 mice. In words: Mouse model of inflammatory arthritis, intra-articular injection into knee joints. The settings on record: 500 ng in 20 μl of PBS, 24 and 48 hours. It is filed as in vivo. The procedure: To use the mouse model of inflammatory arthritis, female C57Bl/6 mice (8-10 weeks old, Harlan Laboratories) are anesthetized with ketamine (80-120 mg/kg body weight) and xylazine (5-10 mg/kg body weight) intraperitoneally, and the knee circumference is determined by caliper measurements before intra-articular injection, as described (67). The anesthetized mice receive 20 μl/knee joint of PBS and recombinant mouse CD13 (500 ng in 20 μl of PBS). Circumference measurements are obtained in a blinded manner. Mice are euthanized after 24 and 48 hours of the intraarticular injection. Mouse knees are measured before euthanasia. Hematoxylin and eosin (H&E) staining of the mouse knee cryosections is performed to determine the inflammatory response of CD13 (67). Immunofluorescence staining is also performed on cryosections using rat anti-mouse F4/80 antibody (GenTex) to detect MNs/macrophages. The number of F4/80-positive MNs/macrophages is calculated as the average number of cells in 3 fields (400X).

B1: CD13: recombinant Aminopeptidase N/CD13 used as stimulus; recombinant mouse CD13 planned for knee injection (protein, UniProt P15144 2-967, looked up)
Aminopeptidase N: AKGFYISKSLGILGILLGVAAVCTIIALSVVYSQEKNKNANSSPVASTTPSASATTNPASATTLDQSKAWNRYRLPNTLKPDSYRVTLRPYLTPNDRGLYVFKGSSTVRFTCKEATDVIIIHSKKLNYTLSQGHRVVLRGVGGSQPPDIDKTELVEPTEYLVVHLKGSLVKDSQYEMDSEFEGELADDLAGFYRSEYMEGNVRKVVATTQMQAADARKSFPCFDEPAMKAEFNITLIHPKDLTALSNMLPKGPSTPLPEDPNWNVTEFHTTPKMSTYLLAFIVSEFDYVEKQASNGVLIRIWARPSAIAAGHGDYALNVTGPILNFFAGHYDTPYPLPKSDQIGLPDFNAGAMENWGLVTYRENSLLFDPLSSSSSNKERVVTVIAHELAHQWFGNLVTIEWWNDLWLNEGFASYVEYLGADYAEPTWNLKDLMVLNDVYRVMAVDALASSHPLSTPASEINTPAQISELFDAISYSKGASVLRMLSSFLSEDVFKQGLASYLHTFAYQNTIYLNLWDHLQEAVNNRSIQLPTTVRDIMNRWTLQMGFPVITVDTSTGTLSQEHFLLDPDSNVTRPSEFNYVWIVPITSIRDGRQQQDYWLIDVRAQNDLFSTSGNEWVLLNLNVTGYYRVNYDEENWRKIQTQLQRDHSAIPVINRAQIINDAFNLASAHKVPVTLALNNTLFLIEERQYMPWEAALSSLSYFKLMFDRSEVYGPMKNYLKKQVTPLFIHFRNNTNNWREIPENLMDQYSEVNAISTACSNGVPECEEMVSGLFKQWMENPNNNPIHPNLRSTVYCNAIAQGGEEEWDFAWEQFRNATLVNEADKLRAALACSKELWILNRYLSYTLNPDLIRKQDATSTIISITNNVIGQGLVWDFVQSNWKKLFNDYGGGSFSFSNLIQAVTRRFSTEYELQQLEQFKKDNEETGFGSGTRALEQALEKTKANIKWVKENKEVVLQWFTENSK
With B1, the “effect of additional rhCD13 on RA FLS proliferation and migration” value in the experiment on RA FLS is given as “did not consistently affect the RA FLS”. Further, the “concentrations at which HMVEC migration was induced” value in experiment [1] is 500 to 2000 ng/mL. Moreover, in experiment [2], the “EC tubes formed compared to PBS” value is given as “almost two-fold more numerous”. In the experiment on C57Bl/6 mice [3], the “hemoglobin (Hb) in Matrigel plugs compared to PBS” value is reported as “more than a four-fold increase in Hb”. For the same molecule, the MN migration entry with normal human MN is given as “concentration-dependent increase in MN migration”. In addition, in the experiment with C57Bl/6 mice [4], the “increase in mouse knee circumference compared to PBS” value was 2-3 fold.
